Laboratory results published in paper doi:10.1101/755678.

Key:
[1] = biological target: RagA (TonB dependent transporter, PG_0185) of P. gingivalis W83 (Porphyromonas gingivalis W83); assay: cryo-EM structure
[2] = biological target: RagA (TonB dependent transporter, PG_0185) of P. gingivalis W83 (Porphyromonas gingivalis W83); assay: crystal structure
[3] = biological target: RagB from W83, mature part, C-terminal His6-tag, expressed in E. coli (Porphyromonas gingivalis W83); assay: MST
[4] = biological target: RagB from ATCC 33277, mature part, C-terminal His6-tag, expressed in E. coli (Porphyromonas gingivalis ATCC 33277); assay: MST
[5] = biological target: RagAB complex from wild-type P. gingivalis W83, 8×His-tag on the C terminus of RagB (Porphyromonas gingivalis W83); assay: MST

RagA (TonB dependent transporter, PG_0185) of P. gingivalis W83 (natural protein)
stoichiometry N [1]: 2 | stoichiometry N [2]: 2

NIFKKNVGFKK [P4 peptide (unlabelled)]
Kd [3]: 2000 µM | Kd [4]: 70 µM

KATAEALKKALEEAGAEVELK [P21 peptide (21 residues from the C-terminus of ribosomal protein L7)]
Kd [3]: 2000 µM | Kd [4]: 700 µM | Kd [5]: 0.4 µM
